Kd data for 3 sequences are collected here from the Immune Epitope Database (IEDB).

One experiment has as its target HLA-A*02:50. The experiment in a line: IEDB peptide-MHC binding, purified MHC/competitive/fluorescence; filed as Kd, often an IC50 or EC50 that approximates it; ≥ and ≤ were set here for values at or beyond the usual limits of such assays. The settings on record: source organism: Yersinia pestis Nepal516.
Another experiment addresses HLA-B*46:01. In words: IEDB peptide-MHC binding, purified MHC/direct/fluorescence; filed as Kd, often an IC50 or EC50 that approximates it; ≥ and ≤ were set here for values at or beyond the usual limits of such assays.
The next experiment deals with HLA-A*02:06. The description is as above. The settings on record: source organism: Yersinia pestis CA88-4125.
The next experiment addresses HLA-B*40:01. The experiment is described as above.
The next experiment concerns the target HLA-A*31:01. Described as above.
The target of another experiment is HLA-A*02:16. Described as above. The settings on record: source organism: Yersinia pestis CA88-4125.
The target in another experiment is HLA-B*27:05. The description is as above.
Another experiment deals with HLA-A*69:01. The description is as above.
The next experiment has as its target HLA-B*18:01. Described as above.
The next experiment deals with HLA-B*44:02. The experiment is described as above. The following applies: source organism: Yersinia pestis.
The next experiment deals with HLA-B*07:02. Described as above.
The next experiment concerns the target HLA-A*01:01. The description is as above.
A further experiment addresses HLA-A*24:02. Described as above. The settings on record: source organism: Yersinia pestis.
The next experiment concerns the target HLA-A*02:01. The description is as above.
A further experiment addresses HLA-A*02:11. The description is as above. The settings on record: source organism: Yersinia pestis CA88-4125.
Another experiment has as its target HLA-A*03:01. The description is as above.
The next experiment addresses HLA-A*02:12. The description is as above. The settings on record: source organism: Yersinia pestis CA88-4125.
The next experiment concerns the target HLA-A*11:01. The experiment is described as above.
The next experiment has as its target HLA-A*02:19. The experiment is described as above. The settings on record: source organism: Yersinia pestis CA88-4125.
For a further experiment, the target named is HLA-B*15:01. The experiment is described as above.
The target of the next experiment is HLA-B*58:01. Described as above.
Another experiment addresses HLA-B*15:02. In words: IEDB peptide-MHC binding, purified MHC/competitive/fluorescence; filed as Kd, often an IC50 or EC50 that approximates it; ≥ and ≤ were set here for values at or beyond the usual limits of such assays. The settings on record: source organism: Pseudomonas fluorescens.
In a further experiment the target is HLA-B*35:01. In words: IEDB peptide-MHC binding, purified MHC/direct/fluorescence; filed as Kd, often an IC50 or EC50 that approximates it; ≥ and ≤ were set here for values at or beyond the usual limits of such assays. The settings on record: source organism: Pseudomonas fluorescens.
The target of a further experiment is HLA-B*08:01. The description is as above. The following applies: source organism: Pseudomonas fluorescens.
A further experiment concerns the target HLA-B*15:17. The experiment in a line: IEDB peptide-MHC binding, purified MHC/competitive/fluorescence; filed as Kd, often an IC50 or EC50 that approximates it; ≥ and ≤ were set here for values at or beyond the usual limits of such assays. The settings on record: source organism: Listeria monocytogenes serotype 4b str. CLIP 80459.
In another experiment the target is HLA-A*68:02. The experiment in a line: IEDB peptide-MHC binding, purified MHC/direct/fluorescence; filed as Kd, often an IC50 or EC50 that approximates it; ≥ and ≤ were set here for values at or beyond the usual limits of such assays. The following applies: source organism: Listeria monocytogenes.
A further experiment concerns the target HLA-B*57:01. The description is as above. The following applies: source organism: Listeria monocytogenes.
The next experiment deals with HLA-B*48:01. The experiment is described as above. The settings on record: source organism: Listeria monocytogenes.
The target in another experiment is HLA-B*08:03. The description is as above. The following applies: source organism: Listeria monocytogenes serotype 4b str. H7858.
[1] abbreviates: source organism: Yersinia pestis.
The mark [2] stands for this setting: source organism: Pseudomonas fluorescens.
The mark [3] stands for this setting: source organism: Listeria monocytogenes.

Turning to AMQDPNPEV, the Kd with HLA-A*02:50 was 0.0011 µM; in the experiment with HLA-B*46:01 (setting [1]) it was not below 20 µM; with HLA-A*02:06, 0.04 µM; with HLA-B*40:01 (setting [1]), not below 20 µM; with HLA-A*31:01 (setting [1]), not below 20 µM; with HLA-A*02:16 it was not above 0.001 µM. Further, the Kd with HLA-B*27:05 (setting [1]) was not below 20 µM; in the experiment with HLA-A*69:01 (setting [1]), 5.29 µM; with HLA-B*18:01 (setting [1]), not below 20 µM; with HLA-B*44:02, not below 20 µM; with HLA-B*07:02 (setting [1]) it was not below 20 µM; with HLA-A*01:01 (setting [1]) it was not below 20 µM. The Kd with HLA-A*24:02 is not below 20 µM; with HLA-A*02:01 (setting [1]), 0.189 µM; with HLA-A*02:11, 0.005 µM; with HLA-A*03:01 (setting [1]), not below 20 µM; with HLA-A*02:12 it was 0.006 µM; in the experiment with HLA-A*11:01 (setting [1]), not below 20 µM. In addition, the dissociation constant Kd with HLA-A*02:19 is 0.042 µM; in the experiment with HLA-B*15:01 (setting [1]), 0.319 µM; with HLA-B*58:01 (setting [1]), not below 20 µM.
With FVSVYFSDY, the dissociation constant Kd is 0.04 µM with HLA-B*15:02; 0.0654 µM in the experiment with HLA-B*35:01; not below 20 µM with HLA-B*40:01 (setting [2]); not below 20 µM with HLA-A*31:01 (setting [2]); not below 20 µM with HLA-B*27:05 (setting [2]); not below 20 µM in the experiment with HLA-A*69:01 (setting [2]). The Kd with HLA-B*07:02 (setting [2]) is not below 20 µM; with HLA-A*01:01 (setting [2]), 0.135 µM; in the experiment with HLA-A*02:01 (setting [2]), not below 20 µM; with HLA-A*03:01 (setting [2]), not below 20 µM; with HLA-B*08:01, not below 20 µM; with HLA-A*11:01 (setting [2]) it was not below 20 µM. Moreover, the dissociation constant Kd with HLA-B*15:01 (setting [2]) was 0.25 µM; with HLA-B*58:01 (setting [2]), not below 20 µM.
Consider EIEIEKNKK, for which the Kd with HLA-B*15:17, with HLA-A*68:02, in the experiment with HLA-B*46:01 (setting [3]), with HLA-B*57:01, in the experiment with HLA-B*40:01 (setting [3]) and with HLA-A*31:01 (setting [3]) was not below 20 µM each time. The Kd with HLA-B*27:05 (setting [3]), in the experiment with HLA-B*18:01 (setting [3]), in the experiment with HLA-B*07:02 (setting [3]), with HLA-B*48:01, in the experiment with HLA-A*01:01 (setting [3]) and with HLA-A*02:01 (setting [3]) was not below 20 µM each time. For the same sequence, the Kd with HLA-A*03:01 (setting [3]), in the experiment with HLA-A*11:01 (setting [3]), with HLA-B*08:03, in the experiment with HLA-B*15:01 (setting [3]) and with HLA-B*58:01 (setting [3]) was not below 20 µM throughout.
